# Experimental data published in article PMC4303301.
# B1: EFI-501083; putative 5-amino-6-(5-phospho-D-ribitylamino) uracil phosphatase (Bacteroides thetaiotaomicron VPI-5482) (protein)
# chain: MIKNIVFDFGGVIVDIDRDKAVQAFIKLGLADADTRLDKYHQTGIFQELEEGKLSADEFRKQLGDLCGRELTMEETKQAWLGFFNEVDLRKLDYILGLRKSYHVYLLSNTNPFVMSWACSPEFSSEGKPLNDYCDKLYLSYQLGHTKPAPEIFDFMIKDSHVIPSETLFVDDGSSNIHIGKELGFETFQPENGADWRQELTVILNS
# Experiments:
# [1] = substrate: O=P(O)(O)OC[C@@H](O)[C@@H](O)[C@@H](O)CO; experiment: purified protein; conditions: 50 mM Tris-HCl pH 7.5, 1 mM MgCl2, 25 °C
# [2] = substrate: O=P(O)(O)OC[C@H](O)[C@H](O)[C@H](O)CO; experiment: purified protein; conditions: 50 mM Tris-HCl pH 7.5, 1 mM MgCl2, 25 °C
protein,measurement,setting,value
B1,Km,[1],1080 ± 140 µM
same,kcat,[1],1.5 ± 0.1 s⁻¹
same,kcat/Km,[1],1400 M⁻¹ s⁻¹
same,Km,[2],1030 ± 180 µM
same,kcat,[2],1.8 ± 0.1 s⁻¹
same,kcat/Km,[2],1700 M⁻¹ s⁻¹
